Data published in patent publication US20170327571A1 (BEIJING BETTERMAB BIOTECHNOLOGY, published 2017).

Legend:
[1] = target: T1, mouse (Mus musculus) IL17 (moIL17) (mouse (Mus musculus), UniProt Q62386 26-158); experiment: ELISA, coated IL17 1 ug/ml, HRP-anti-human IgG
T1 construct: also called mIL17; mouse IL17
T1 sequence: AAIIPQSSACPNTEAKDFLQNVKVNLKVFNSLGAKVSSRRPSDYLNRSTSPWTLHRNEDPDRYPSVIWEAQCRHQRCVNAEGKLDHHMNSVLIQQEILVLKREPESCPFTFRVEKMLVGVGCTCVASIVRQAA

[2] = target: T2, Macaca mulatta IL17 (mmIL17) (Macaca mulatta, UniProt Q16552 24-155 (human entry), limits assumed); experiment: ELISA, coated IL17 1 ug/ml, HRP-anti-human IgG
T2 chain: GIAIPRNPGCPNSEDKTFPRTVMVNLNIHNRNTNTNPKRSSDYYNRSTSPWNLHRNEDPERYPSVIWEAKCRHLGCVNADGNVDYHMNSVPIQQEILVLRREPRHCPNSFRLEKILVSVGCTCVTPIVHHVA

[3] = target: T3, Macaca fascicularis IL17 (mfIL17) (Macaca fascicularis, UniProt Q16552 24-155 (human entry), limits assumed); experiment: ELISA, coated IL17 1 ug/ml, HRP-anti-human IgG
T3 chain: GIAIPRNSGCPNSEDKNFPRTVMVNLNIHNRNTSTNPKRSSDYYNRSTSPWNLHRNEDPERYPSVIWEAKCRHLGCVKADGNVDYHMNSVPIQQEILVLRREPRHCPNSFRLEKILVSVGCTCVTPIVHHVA

[4] = target: T4, huIL17-his (human IL17 with C-terminal His-tag) (human (homo sapiens), UniProt Q16552 24-155); experiment: cell-based or functional assay
T4 sequence: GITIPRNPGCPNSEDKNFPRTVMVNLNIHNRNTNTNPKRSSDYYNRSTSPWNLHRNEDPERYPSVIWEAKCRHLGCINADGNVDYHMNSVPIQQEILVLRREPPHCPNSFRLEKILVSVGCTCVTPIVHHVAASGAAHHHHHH

| Binder | binding result [1] | binding result [2] | binding result [3] | IC50 of inhibiting IL17-induced release of IL6 by HDFa cells (2 nM IL17-His) [4] [nM] |
| --- | --- | --- | --- | --- |
| Ixekizumab (antibody, V domains shown) VH: QVQLVQSGAEVKKPGSSVKVSCKASGYSFTDYHIHWVRQAPGQGLEWMGVINPMYGTTDYNQRFKGRVTITADESTSTAYMELSSLRSEDTAVYYCARYDYFTGTGVYWGQGTLVTVSS VL: DIVMTQTPLSLSVTPGQPASISCRSSRSLVHSRGNTYLHWYLQKPGQSPQLLIYKVSNRFIGVPDRFSGSGSGTDFTLKISRVEAEDVGVYYCSQSTHLPFTFGQGTKLEIK | no binding | binds | binds | – |
| anti-IL17 monoclonal antibody 9GA3 (antibody, V domains shown, Recombinant intact antibody) VH: EVQLVESGGGLVQPGGSLRLSCAASGITMDDYWMNWVRQAPGKGLEWVAAINQDGNEKYYVGSVKGRFTISRDNAKNSLYLQMNSLRVEDTAVYYCVRDYYDLISDYYIHYWYFDLWGRGTLVTVSS VL: DIQMTQSPSSLSASVGDRVTITCRASQNVHNRLTWYQQKPGKAPKLLIYGASNLESGVPSRFSGSGSGTDFTLTISSLQPEDFATYYCQQYNGSPTTFGQGTKVEIK | no binding | binds | binds | 0.12 |
| control antibody Secukinumab (antibody, V domains shown) VH: EVQLVESGGGLVQPGGSLRLSCAASGFTFSNYWMNWVRQAPGKGLEWVAAINQDGSEKYYVGSVKGRFTISRDNAKNSLYLQMNSLRVEDTAVYYCVRDYYDILTDYYIHYWYFDLWGRGTLVTVSS VL: not shown | no binding | – | – | – |

The next lines start with the values.

| binding result [1] | binding result [2] | binding result [3] | IC50 of inhibiting IL17-induced release of IL6 by HDFa cells (2 nM IL17-His) [4] [nM] | Binder |
| --- | --- | --- | --- | --- |
| no binding | binds | binds | 0.07 | anti-IL17 monoclonal antibody 9GC5 (antibody, V domains shown, Recombinant intact antibody) VH: EVQLVESGGGLVQPGGSLRLSCAASGMSMSDYWMNWVRQAPGKGLEWVAAINQDGDEKYYVGSVKGRFTISRDNAKNSLYLQMNSLRVEDTAVYYCVRDYYDLISDYYIHYWYFDLWGRGTLVTVSS VL: DIQMTQSPSSLSASVGDRVTITCRASQNVHNRLTWYQQKPGKAPKLLIYGASNLESGVPSRFSGSGSGTDFTLTISSLQPEDFATYYCQQYNGSPTTFGQGTKVEIK |
| no binding | binds | binds | 0.22 | anti-IL17 monoclonal antibody 9GC2 (antibody, V domains shown, Recombinant intact antibody) VH: EVQLVESGGGLVQPGGSLRLSCAASGFTIDNYWMNWVRQAPGKGLEWVAAINQDGNEKYYVGSVKGRFTISRDNAKNSLYLQMNSLRVEDTAVYYCVRDYYDVISDYYIHYWYFDLWGRGTLVTVSS VL: DIQMTQSPSSLSASVGDRVTITCRASQNVHNRLTWYQQKPGKAPKLLIYGASNLESGVPSRFSGSGSGTDFTLTISSLQPEDFATYYCQQYNGSPTTFGQGTKVEIK |
